Results taken from patent US20180112008A1 (Memorial Sloan Kettering, published 2018).
Changes are numbered by the printed parent chain. Each block holds one molecule with its values, some of them ahead of it. Ends that are not written are not given here. * marks the point of attachment. GlcNAc2 = N-linked chitobiose, CC(=O)N[C@@H]1[C@@H](O)[C@H](O[C@@H]2O[C@H](CO)[C@@H](O)[C@H](O)[C@H]2NC(C)=O)[C@@H](CO)O[C@H]1*

Experiments:
[1] = molecular target: MUC16 unrelated peptide 18mer+GlcNAc2; assay: sandwich ELISA on 'MUC16 unrelated 18mer + GlcNAc2'; Blank 0.014
[2] = molecular target: MUC16 18mer; assay: sandwich ELISA on 'MUC16 18mer'; Blank 0.032
[3] = molecular target: MUC16^c114 (human); assay: FACS, SKOV3 transfectant, goat anti-mouse IgG-PE
[4] = molecular target: MUC16^c114 on SKOV3 cells with MGAT5 knock-down (human); assay: FACS, SKOV3-shMGAT5-c114
[5] = molecular target: MUC16^c114 (human); assay: FACS, SKOV3-c114
[6] = molecular target: MUC16 18mer; assay: ELISA 12/24/13 (sups from time of freezing), neat, column 18
[7] = molecular target: MUC16^c114 (human); assay: FACS of transfected cells; vector control phrGFP 3.7; cell line not given
[8] = molecular target: non-glycosylated 15-mer MUC16 peptide (human); assay: ELISA 12/24/13 (sups from time of freezing), neat, column 15
[9] = molecular target: GlcNAc2-15-mer glycopeptide, unconjugated (human); assay: sandwich ELISA on 'MUC16 15mer + GlcNAc2'; Blank 0.019
[10] = molecular target: (GlcNAc2)2-18-mer glycopeptide, unconjugated (human); assay: ELISA 12/24/13 (sups from time of freezing), neat, column 18S
[11] = molecular target: GlcNAc2-15-mer glycopeptide, unconjugated (human); assay: ELISA 12/24/13 (sups from time of freezing), neat, column 15S
[12] = molecular target: non-glycosylated 15-mer MUC16 peptide (human); assay: sandwich ELISA on 'MUC16 15mer'; Blank 0.021
[13] = molecular target: MUC16^c114 (human); assay: FACS of transfected cells; vector control phrGFP 7.9; cell line not given
[14] = molecular target: (GlcNAc2)2-18-mer glycopeptide, unconjugated (human); assay: sandwich ELISA on 'MUC16 18mer + GlcNAc2'; Blank 0.029
[15] = molecular target: MUC16^c114 (human); assay: FACS of transfected cells; vector control phrGFP 11.4; cell line not given
[16] = molecular target: MUC16 unrelated peptide 18mer; assay: sandwich ELISA on 'MUC16 unrelated peptide 18mer'; Blank 0.013
[17] = molecular target: T1, MUC16 18mer (not fully specified); assay: ELISA 12/24/13 (sups from time of freezing), dilution 400, column 18
T1 construct: also called non-glycosylated 18-mer MUC16 peptide
T1 peptide: CTRNGTQLQNFTLDRSSV

[18] = molecular target: T2, non-glycosylated 15-mer MUC16 peptide (human); assay: ELISA 12/24/13 (sups from time of freezing), dilution 400, column 15
T2 construct: Same peptide as the GlcNAc2-15-mer without the glycan; also called unglycosylated 15-mer
T2 peptide: CGTQLQNFTLDRSSV

[19] = molecular target: T3, (GlcNAc2)2-18-mer glycopeptide, unconjugated (human); assay: ELISA 12/24/13 (sups from time of freezing), dilution 400, column 18S
T3 construct: Used in ELISA without KLH; also called 18-mer(chitobiose)2[C-T22-V38]; 18mer-chitobiose peptide
T3 peptide: Ac-CTRN(GlcNAc2)GTQLQN(GlcNAc2)FTLDRSSV-NH2

[20] = molecular target: T4, GlcNAc2-15-mer glycopeptide, unconjugated (human); assay: ELISA 12/24/13 (sups from time of freezing), dilution 400, column 15S
T4 construct: Cys plus G25-V38 of MUC16^c114; Used in ELISA without KLH; also called 15-mer(chitobiose)[C-G25-V38]; 15mer-chitobiose peptide
T4 peptide: Ac-CGTQLQN(GlcNAc2)FTLDRSSV-NH2

[21] = molecular target: T5, biotinylated chitobiose-conjugated 18-mer glycopeptide (human, also: biotinylated, site not given here); assay: BLI (Octet QK), biotinylated glycopeptide on streptavidin sensor, antibody 10 ug/mL, 1:1 model
T5 construct: Cys plus T22-V38 of MUC16^c114; The range is derived from T22-V38 and the statement that c114 is 1777-1890; also called (GlcNAc2)2-18-mer, biotinylated; 18-mer(chitobiose)2[C-T22-V38]
T5 peptide: Ac-CTRN(GlcNAc2)GTQLQN(GlcNAc2)FTLDRSSV-NH2
Description: Binding affinity was determined using ForeBio Octet QK. 5 μg/mL of biotinylated chitobiose-conjugated 18-mer glycopeptide was loaded onto a streptavidin biosensor. After washing off excess antigen, mouse antibodies were tested at 10 μg/mL for association and dissociation steps, respectively. Binding parameters were calculated using 1:1 binding site model, partial fit.

[22] = molecular target: T3, (GlcNAc2)2-18-mer glycopeptide, …; assay: ELISA during fusion screen, dilution 400, column 18S
[23] = molecular target: T1, MUC16 18mer; assay: ELISA during fusion screen, dilution 400, column 18
[24] = molecular target: EGFR (endogenous, MUC16^c114-expressing 3T3 cells) (Mus musculus (Mouse), UniProt Q01279 25-1210); assay: co-precipitation from MUC16^c114-expressing 3T3 cells with MUC16-targeting antibodies, western blot
[25] = molecular target: HER3 (endogenous, MUC16^c114-expressing 3T3 cells) (Mus musculus (Mouse), UniProt Q61526 20-1339); assay: as above
Chain of HER3 (endogenous, MUC16^c114-expressing 3T3 cells) (Q61526 20-1339 limits assumed): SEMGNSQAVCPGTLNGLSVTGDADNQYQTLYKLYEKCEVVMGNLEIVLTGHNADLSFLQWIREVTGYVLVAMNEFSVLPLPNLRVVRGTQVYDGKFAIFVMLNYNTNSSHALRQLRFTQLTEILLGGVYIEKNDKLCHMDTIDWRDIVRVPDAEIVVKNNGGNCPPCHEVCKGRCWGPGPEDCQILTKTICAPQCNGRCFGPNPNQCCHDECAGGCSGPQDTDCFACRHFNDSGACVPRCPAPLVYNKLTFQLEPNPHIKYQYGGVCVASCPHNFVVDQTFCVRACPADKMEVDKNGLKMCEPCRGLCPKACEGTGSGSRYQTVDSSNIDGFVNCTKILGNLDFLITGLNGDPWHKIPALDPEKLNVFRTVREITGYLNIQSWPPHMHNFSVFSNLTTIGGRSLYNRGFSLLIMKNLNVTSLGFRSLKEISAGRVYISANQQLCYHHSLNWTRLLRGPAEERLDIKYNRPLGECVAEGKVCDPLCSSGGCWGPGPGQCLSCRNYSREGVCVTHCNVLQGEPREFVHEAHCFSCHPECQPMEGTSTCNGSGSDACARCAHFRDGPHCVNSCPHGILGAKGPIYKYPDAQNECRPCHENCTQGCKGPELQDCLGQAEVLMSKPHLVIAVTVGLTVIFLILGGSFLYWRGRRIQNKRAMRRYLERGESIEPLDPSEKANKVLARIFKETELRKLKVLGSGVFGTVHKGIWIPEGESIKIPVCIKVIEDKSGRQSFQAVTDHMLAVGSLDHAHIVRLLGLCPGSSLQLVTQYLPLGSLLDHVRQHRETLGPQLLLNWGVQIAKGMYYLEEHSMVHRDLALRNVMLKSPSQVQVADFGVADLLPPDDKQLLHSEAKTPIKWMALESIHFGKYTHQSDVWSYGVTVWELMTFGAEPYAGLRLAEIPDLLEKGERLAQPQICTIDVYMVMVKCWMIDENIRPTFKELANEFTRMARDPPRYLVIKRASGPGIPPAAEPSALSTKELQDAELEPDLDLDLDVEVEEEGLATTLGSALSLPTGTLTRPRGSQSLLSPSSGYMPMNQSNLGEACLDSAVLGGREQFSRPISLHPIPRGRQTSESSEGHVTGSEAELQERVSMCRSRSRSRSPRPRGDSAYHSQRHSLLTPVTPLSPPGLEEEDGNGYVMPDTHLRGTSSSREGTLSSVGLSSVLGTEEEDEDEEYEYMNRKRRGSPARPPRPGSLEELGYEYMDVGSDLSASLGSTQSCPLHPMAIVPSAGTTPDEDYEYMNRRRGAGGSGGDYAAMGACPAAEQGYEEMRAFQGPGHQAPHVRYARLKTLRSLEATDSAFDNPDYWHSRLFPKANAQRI

[26] = molecular target: T6, MUC16^c114-N1 (human, chain 1 pos 24 and pos 30: N-glycosylated Asn (cell-made glycans), written N); assay: FACS, SKOV3 transfectant, goat anti-mouse IgG-PE
T6 construct: MUC16^c114 with Asn1 (Asn1777) changed to Ala, on SKOV3 cells; also called N1 mut c114; SKOV3 MUC16^c114-N1; not shown: hrGFP of the phrGFP II-C vector, fused at the cytoplasmic carboxy-terminus
T6 chain: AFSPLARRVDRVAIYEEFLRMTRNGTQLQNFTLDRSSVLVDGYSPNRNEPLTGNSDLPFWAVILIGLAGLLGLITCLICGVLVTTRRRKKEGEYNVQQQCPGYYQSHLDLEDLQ

[27] = molecular target: T7, MUC16^c114-N123 (human, All three N-glycosylation sites (pos 1, 24, 30) are mutated to Ala; none is left in the ectodomain.); assay: FACS, SKOV3 transfectant, goat anti-mouse IgG-PE
T7 construct: MUC16^c114 with Asn1, Asn24 and Asn30 changed to Ala, on SKOV3 or 3T3 cells; also called N1-N24-N30 mut c114; SKOV3-N1-N24-N30mutc114; not shown: hrGFP of the phrGFP II-C vector, fused at the cytoplasmic carboxy-terminus
T7 chain: T6 chain with N24A, N30A

[28] = molecular target: T8, MUC16^c114-N3 (human, chain 1 pos 1 and pos 24: N-glycosylated Asn (cell-made glycans), written N); assay: FACS, SKOV3 transfectant, goat anti-mouse IgG-PE
T8 construct: MUC16^c114 with Asn30 (Asn1806) changed to Ala, on SKOV3 cells; also called N30 mut c114; SKOV3-N30 mutc114; not shown: hrGFP of the phrGFP II-C vector, fused at the cytoplasmic carboxy-terminus
T8 chain: T6 chain with A1N, N30A

[29] = molecular target: T9, MUC16 nonglycosylated peptide 2 (human); assay: sandwich ELISA on 'MUC16 Nonglycosylated Peptide2'; Blank 0.029
T9 construct: Peptide used to elicit the 4H11 antibody; also called nonglycosylated MUC16 peptide 2
T9 peptide: CTLDRSSVLVDGYSPNRNE

[30] = molecular target: T10, MUC16^c114-N2 (human, chain 1 pos 1 and pos 30: N-glycosylated Asn (cell-made glycans), written N); assay: FACS, SKOV3-N24 mutc114
T10 construct: MUC16^c114 with Asn24 (Asn1800) changed to Ala, on SKOV3 cells; also called N24 mut c114; SKOV3-N24 mutc114; not shown: hrGFP of the phrGFP II-C vector, fused at the cytoplasmic carboxy-terminus
T10 chain: T6 chain with A1N, N24A

[31] = molecular target: T11, MUC16^c86; assay: FACS of transfected cells; vector control phrGFP 11.4; cell line not given
T11 construct: also called Internal Deletion
T11 single chain: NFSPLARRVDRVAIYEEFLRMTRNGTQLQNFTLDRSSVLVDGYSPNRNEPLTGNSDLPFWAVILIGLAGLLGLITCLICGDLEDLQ

[32] = molecular target: T12, MUC16^c80; assay: as above
T12 construct: also called External Deletion
T12 single chain: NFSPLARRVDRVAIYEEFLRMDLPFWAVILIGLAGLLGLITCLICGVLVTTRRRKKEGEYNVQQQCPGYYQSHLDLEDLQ

[33] = molecular target: T13, MUC16^c344 (human, N- and O-glycosylation sites ; chain 1 pos 231, 254 and 260 (N1, N24, N30 of c114): N-glycosylated Asn, written N; further N- and O-glycosylation sites in the tandem-repeat part); assay: as above
T13 construct: also called MUC16^c344-GFP; SKOV3-c344; not shown: hrGFP of the phrGFP II-C vector, fused at the cytoplasmic carboxy-terminus
T13 chain: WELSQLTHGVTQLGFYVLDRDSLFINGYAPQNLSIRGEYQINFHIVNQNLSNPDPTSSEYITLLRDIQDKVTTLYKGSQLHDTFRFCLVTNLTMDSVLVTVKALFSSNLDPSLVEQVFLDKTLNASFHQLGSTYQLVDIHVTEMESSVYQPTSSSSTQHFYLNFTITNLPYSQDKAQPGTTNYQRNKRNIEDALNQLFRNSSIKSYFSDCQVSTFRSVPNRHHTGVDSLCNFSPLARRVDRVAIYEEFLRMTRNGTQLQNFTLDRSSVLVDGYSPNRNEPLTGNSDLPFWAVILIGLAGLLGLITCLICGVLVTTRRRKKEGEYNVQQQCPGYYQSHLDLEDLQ

- ELISA signal [1]: 0.038
- ELISA signal [2]: 0.076
- Mean % PE [3]: 85.7%
- geometric mean phycoerythrin (PE) fluorescence [4]: 2380
- geometric mean phycoerythrin (PE) fluorescence [5]: 1120
- ELISA signal [6]: 0.02
- % 4H11-PE Positives [7]: 19.3%
- ELISA signal [8]: 0.02
- ELISA signal [9]: 0.06
- ELISA signal [10]: 0.02
- ELISA signal [11]: 0.02
- ELISA signal [12]: 0.049
- % 4H11-PE Positives [13]: 28.4%
- ELISA signal [14]: 0.063
- % 4H11-PE Positives [15]: 51.7%
- ELISA signal [16]: 0.045
Molecule: 4H11 (antibody)

- ELISA signal [17]: 0.63
- ELISA signal [18]: 0.62
- ELISA signal [19]: 0.68
- ELISA signal [20]: 0.23
- Kd [21]: 25.7 nM
- koff [21]: 0.00172 s⁻¹
- ELISA signal [22]: 0.36
- ELISA signal [23]: 0.24
B1: 16C5.C1 (antibody, V domains shown)
VH: QVTLKESGPGILQPSQTLSLTCSFSGFSLNTLGMGVGWIRQPSGKGLEWLAHIWWDDDKYYYPALKSRLTISRDTSKNQVFLKIANVDTADTATYYCARIGTAQATDALDYWGQGTSVTVSS
VL: ELDMTQTPPSLSASVGETVRIRCLASEDIYSGISWYQQKPGKPPTLLIYGASNLESGVPPRFSGSGSGTDYTLTIGGVQAEDAATYYCLGGYSYSSTLTFGAGTNVEIK
notes: Mouse monoclonal from a hybridoma

- binding result [24]: no binding
- binding result [25]: no binding
B2: MUC16^c114 (other)
chain: T6 chain with A1N
modifications: capable of N-glycosylation at Asn1, Asn24 and Asn30 ; chain 1 pos 1, 24, 30: Asn capable of N-glycosylation on the transfected cells, written N
notes: The forward primer adds Met-Val before Asn1; also called MUC16^c114-GFP; SKOV3 MUC16^c114; not shown: hrGFP of the phrGFP II-C vector fused at the cytoplasmic carboxy-terminus, with its short cloning linker

- Mean % PE [26]: 91.5%
- Mean % PE [27]: 32.3%
- Mean % PE [28]: 15.6%
- ELISA signal [29]: 2.14
- geometric mean phycoerythrin (PE) fluorescence [30]: 2650
- % 4H11-PE Positives [31]: 27.4%
- % 4H11-PE Positives [32]: 16.7%
- % 4H11-PE Positives [33]: 34.4%
B3: 4H11 (antibody, V domains shown)
VH: EVKLQESGGGFVKPGGSLKVSCAASGFTFSSYAMSWVRLSPEMRLEWVATISSAGGYIFYSDSVQGRFTISRDNAKNTLHLQMGSLRSGDTAMYYCARQGFGNYGDYYAMDYWGQGTTVTVSS
VL: DIELTQSPSSLAVSAGEKVTMSCKSSQSLLNSRTRKNQLAWYQQKPGQSPELLIYWASTRQSGVPDRFTGSGSGTDFTLTISSVQAEDLAVYYCQQSYNLLTFGPGTKLEVK
